Data taken from US20230002480A1.

How the values were obtained:
Assay in all cases: cell-based or functional assay
[1] = target: HIV-1 Env of pseudovirus BJOX010000.06.2 (HIV-1)
[2] = target: HIV-1 Env of pseudovirus BF1266.431a (HIV-1)
[3] = target: HIV-1 Env of pseudovirus 0815.v3.c3 (HIV-1)
[4] = target: HIV-1 Env of pseudovirus C4118.c09 (HIV-1)
[5] = target: HIV-1 Env of pseudovirus 0260.v5.c36 (HIV-1)
[6] = target: HIV-1 Env of pseudovirus Ce0393_C3 (HIV-1)
[7] = target: HIV-1 Env of pseudovirus X1193_c1 (HIV-1)
[8] = target: HIV-1 Env of pseudovirus ZM135M.PL10a (HIV-1)
[9] = target: HIV-1 Env of pseudovirus Ce1086_B2 (HIV-1)
[10] = target: HIV-1 Env of pseudovirus 246F C1G (HIV-1)
[11] = target: HIV-1 Env of pseudovirus 89-F1_2_25 (HIV-1)
[12] = target: HIV-1 Env of pseudovirus Q842.d12 (HIV-1)
[13] = target: HIV-1 Env of pseudovirus Ce0682_E4 (HIV-1)
[14] = target: HIV-1 Env of pseudovirus ZM233M.PB6 (HIV-1)
[15] = target: HIV-1 Env of pseudovirus 3415.v1.c1 (HIV-1)
[16] = target: HIV-1 Env of pseudovirus PVO.4 (HIV-1)
[17] = target: HIV-1 Env of pseudovirus CNE21 (HIV-1)
[18] = target: HIV-1 Env of pseudovirus REJO4541.67 (HIV-1)
[19] = target: HIV-1 Env of pseudovirus 6041.v3.c23 (HIV-1)
[20] = target: HIV-1 Env of pseudovirus 6240_08_TA5_4622 (HIV-1)
[21] = target: HIV-1 Env of pseudovirus X1254_c3 (HIV-1)
[22] = target: HIV-1 Env of pseudovirus R2184.c04 (HIV-1)
[23] = target: HIV-1 Env of pseudovirus Ce704809221_1B3 (HIV-1)
[24] = target: HIV-1 Env of pseudovirus P1981_C5_3 (HIV-1)
[25] = target: HIV-1 Env of pseudovirus Du422.1 (HIV-1)
[26] = target: HIV-1 Env of pseudovirus QH0692.42 (HIV-1)
[27] = target: HIV-1 Env of pseudovirus 6952.v1.c20 (HIV-1)
[28] = target: HIV-1 Env of pseudovirus 3365.v2.c2 (HIV-1)
[29] = target: HIV-1 Env of pseudovirus CAP210.2.00.E8 (HIV-1)
[30] = target: HIV-1 Env of pseudovirus CNE53 (HIV-1)
[31] = target: HIV-1 Env of pseudovirus CAAN5342.A2 (HIV-1)
[32] = target: HIV-1 Env of pseudovirus Q23.17 (HIV-1)
[33] = target: HIV-1 Env of pseudovirus Ce703010054_2A2 (HIV-1)

B1: N49P23 (antibody, V domains shown)
VH: QVRLVQSGAGARKTGASMKLSCSTSGYTFTTHHGHFINWVRQARGQGLEWMGWMNPMTGQMNIEGKFQGRVTLTRDIYSDTAYMEMTRLTTGDTGTYYCARGDFGQNYPFHYWGQGSLVIVSS
VL: LSALTQPASVSGSPGQSVTISCSGTNRYLVSWYQQHPDKAPKLIIYDDNKRPSGISDRFSASRPDDTASLTISGLQTGDEATYWCASYERFGGGTRLTVLS
IC50 [1]: 0.284 µg/mL
IC80 [1]: 2.08 µg/mL
MPI [1]: 100
IC50 [2]: 0.083 µg/mL
IC80 [2]: 0.44 µg/mL
MPI [2]: 99
IC50 [3]: 0.004 µg/mL
IC80 [3]: 0.014 µg/mL
MPI [3]: 100
IC50 [4]: 0.026 µg/mL
IC80 [4]: 0.12 µg/mL
MPI [4]: 100
IC50 [5]: 0.261 µg/mL
IC80 [5]: 0.919 µg/mL
MPI [5]: 100
IC50 [6]: > 50 µg/mL
IC80 [6]: > 50 µg/mL
MPI [6]: 29
IC50 [7]: 0.008 µg/mL
IC80 [7]: 0.038 µg/mL
MPI [7]: 100
IC50 [8]: > 50 µg/mL
IC80 [8]: > 50 µg/mL
MPI [8]: 36
IC50 [9]: 0.063 µg/mL
IC80 [9]: 0.303 µg/mL
MPI [9]: 100
IC50 [10]: > 50 µg/mL
IC80 [10]: > 50 µg/mL
MPI [10]: 11
IC50 [11]: > 50 µg/mL
IC80 [11]: > 50 µg/mL
MPI [11]: 5
IC50 [12]: 0.007 µg/mL
IC80 [12]: 0.022 µg/mL
MPI [12]: 100
IC50 [13]: 1.39 µg/mL
IC80 [13]: > 50 µg/mL
MPI [13]: 76
IC50 [14]: > 50 µg/mL
IC80 [14]: > 50 µg/mL
MPI [14]: 14
IC50 [15]: 0.054 µg/mL
IC80 [15]: 0.19 µg/mL
MPI [15]: 100
IC50 [16]: 0.087 µg/mL
IC80 [16]: 0.43 µg/mL
MPI [16]: 100
IC50 [17]: > 50 µg/mL
IC80 [17]: > 50 µg/mL
MPI [17]: 0
IC50 [18]: 0.008 µg/mL
IC80 [18]: 0.05 µg/mL
MPI [18]: 100
IC50 [19]: 7.47 µg/mL
IC80 [19]: > 50 µg/mL
MPI [19]: 63
IC50 [20]: 0.215 µg/mL
IC80 [20]: 1 µg/mL
MPI [20]: 100
IC50 [21]: 0.022 µg/mL
IC80 [21]: 0.111 µg/mL
MPI [21]: 100
IC50 [22]: 0.008 µg/mL
IC80 [22]: 0.032 µg/mL
MPI [22]: 100
IC50 [23]: 0.083 µg/mL
IC80 [23]: 0.643 µg/mL
MPI [23]: 100
IC50 [24]: 0.096 µg/mL
IC80 [24]: 0.264 µg/mL
MPI [24]: 100
IC50 [25]: > 50 µg/mL
IC80 [25]: > 50 µg/mL
MPI [25]: 4
IC50 [26]: 0.557 µg/mL
IC80 [26]: 2.51 µg/mL
MPI [26]: 100
IC50 [27]: 0.007 µg/mL
IC80 [27]: 0.023 µg/mL
MPI [27]: 100
IC50 [28]: 0.017 µg/mL
IC80 [28]: 0.053 µg/mL
MPI [28]: 100
IC50 [29]: > 50 µg/mL
IC80 [29]: > 50 µg/mL
MPI [29]: 2
IC50 [30]: 0.026 µg/mL
IC80 [30]: 0.095 µg/mL
MPI [30]: 100
IC50 [31]: 0.412 µg/mL
IC80 [31]: 1.38 µg/mL
MPI [31]: 100
IC50 [32]: 0.01 µg/mL
IC80 [32]: 0.046 µg/mL
MPI [32]: 100
IC50 [33]: > 50 µg/mL
IC80 [33]: > 50 µg/mL
MPI [33]: 35
